Reference: the RNAGym collection of RNA variant scans (doi:10.7554/elife.80360)

B1: HDV Ribozyme (parent)
chain: GGCCGGCAUGGUCCCAGCCUCCUCGCUGGCGCCGGCUGGGCAACAUUCCGAGGGGACCGUCCCCUCGGUAAUGGCGAAUGGGACCCA

Variants of: B1
Test: self-cleavage, relative activity (ratio to wild type); higher = more cleavage; co-transcriptional

Compared with G28C C32G, G74C C75U is higher in self-cleavage: 0 for the first, 0.108 for the second.

Compared with G1C C84A, A16U G80A is higher in self-cleavage: 0.166 for the first, 0.812 for the second.

Compared with G10A G50U, A56C U79A is lower in self-cleavage: 0.67 for the first, 0.554 for the second.

Going from C41A U65C to G2C U20A, the self-cleavage falls from 1.14 to 0.0361.

First: C33A U46C
Second: C19U U47A
The self-cleavage of the first is lower: 0.0875 for the first, 0.191 for the second.

Going from G28C C85A to C14G C57U, the self-cleavage rises from 0.0475 to 0.665.

Compared with C58U G73A, C4G U79C is lower in self-cleavage: 0.7 for the first, 0.13 for the second.

Compared with G31A G59C, C44U G73U is lower in self-cleavage: 0.348 for the first, 0.172 for the second.

First: C30G A83C
Second: G11U G28C
The self-cleavage of the first is lower: 0.0489 for the first, 0.0992 for the second.

Going from C4U C64G to C18G C61A, the self-cleavage falls from 0.538 to 0.222.

Compared with G38U, G6A G39C is lower in self-cleavage: 0.255 for the first, 0.0415 for the second.

First: U9C U20A
Second: G50C A70U
The self-cleavage of the first is lower: 0 for the first, 0.8 for the second.

Going from U9A U72C to C22A G82U, the self-cleavage falls from 0.688 to 0.111.

First: C14A C32U
Second: C3A G6U
The self-cleavage of the first is higher: 0.458 for the first, 0.0492 for the second.

Going from C15U C48U to C18A U20C, the self-cleavage falls from 0.852 to 0.

First: U46C A77G
Second: C19A A42C
The self-cleavage of the first is higher: 0.516 for the first, 0.026 for the second.

First: C44A G82U
Second: G28U C33U
The self-cleavage of the first is lower: 0.0791 for the first, 0.117 for the second.

Compared with G28C C63U, A78G C84A is higher in self-cleavage: 0.0369 for the first, 0.571 for the second.

First: C22U A87C
Second: C4G C41U
The self-cleavage of the first is higher: 0.665 for the first, 0.289 for the second.

First: G50C A71C
Second: A51U C58U
The self-cleavage of the first is lower: 0.252 for the first, 1.17 for the second.

Going from G10U U47A to C3A G53C, the self-cleavage rises from 0.514 to 0.635.

Compared with G50C G80U, C21G U23C is lower in self-cleavage: 0.225 for the first, 0.0615 for the second.

Going from G29C G81A to U47G U79G, the self-cleavage rises from 0.0639 to 0.415.

First: G6C C58G
Second: C32U U65G
The self-cleavage of the first is lower: 0.133 for the first, 0.956 for the second.

Compared with U12C C15G, C14G A83C is lower in self-cleavage: 0.147 for the first, 0 for the second.

Going from G34A A78G to U20A U60G, the self-cleavage falls from 0.157 to 0.128.

Going from C4G A83G to G35A A77C, the self-cleavage falls from 0.192 to 0.131.

First: C13U C21A
Second: G81C C84U
The self-cleavage of the first is higher: 0.192 for the first, 0.141 for the second.

Compared with C15U A70C, C21G U46G is lower in self-cleavage: 0.776 for the first, 0.0978 for the second.

Compared with G59A G80C, C44G G76A is higher in self-cleavage: 0.226 for the first, 0.8 for the second.

First: U20G G28A
Second: C33A A77G
The self-cleavage of the first is lower: 0.0536 for the first, 0.104 for the second.

Compared with C49A G52U, G50U A77G is higher in self-cleavage: 0.369 for the first, 0.639 for the second.

Going from U9G G53C to C22U U69A, the self-cleavage falls from 0.939 to 0.554.

Compared with C32A G81C, A43G A70C is higher in self-cleavage: 0.0475 for the first, 0.9 for the second.

Going from G11U U60G to C15A A42C, the self-cleavage falls from 0.381 to 0.122.

Going from G54A C58G to C30G G59A, the self-cleavage falls from 1.03 to 0.0692.

Compared with U9C G59U, C14A A51G is lower in self-cleavage: 1.17 for the first, 0.755 for the second.

Compared with C30U G74A, C15U C62U is higher in self-cleavage: 0.0329 for the first, 0.764 for the second.

First: G31C C66A
Second: G25U
The self-cleavage of the first is higher: 0.405 for the first, 0.177 for the second.

Compared with C63U U72C, G34U C36U is lower in self-cleavage: 0.751 for the first, 0.0482 for the second.

Going from C22U U27G to G35U G52A, the self-cleavage falls from 0.554 to 0.483.

Going from C13G A16U to G38A C41U, the self-cleavage rises from 0.19 to 0.354.

First: C48G C49U
Second: C3U
The self-cleavage of the first is higher: 1.08 for the first, 0.802 for the second.

First: C19U A42U
Second: C7U A87G
The self-cleavage of the first is lower: 0.035 for the first, 0.91 for the second.

Compared with G28U U69C, C26G G67A is higher in self-cleavage: 0.0791 for the first, 0.696 for the second.

First: A43C A70G
Second: U20G G68C
The self-cleavage of the first is higher: 0.643 for the first, 0.166 for the second.

Compared with U9A C84G, A71U C75U is lower in self-cleavage: 0.554 for the first, 0.218 for the second.

First: U47A A83C
Second: C61A C66U
The self-cleavage of the first is lower: 0.391 for the first, 1.1 for the second.

Going from C14A C63U to C32G C62U, the self-cleavage falls from 0.731 to 0.117.

First: C63G A83G
Second: C41A G50A
The self-cleavage of the first is lower: 0.519 for the first, 0.957 for the second.

First: G59A U60C
Second: G76A A87G
The self-cleavage of the first is higher: 1.12 for the first, 1.01 for the second.

G68C G76C and G50A G59A are the same in self-cleavage: 1.03 for the first, 1.03 for the second.

Going from A43G G59U to G53C U72G, the self-cleavage rises from 0.601 to 0.697.

First: G10A C19G
Second: U46A U65C
The self-cleavage of the first is lower: 0.111 for the first, 0.65 for the second.

First: C63A U65C
Second: A45U G67U
The self-cleavage of the first is lower: 0.525 for the first, 0.801 for the second.

Compared with A42G C66U, C44U G59C is higher in self-cleavage: 0.591 for the first, 0.997 for the second.

Going from U37G U72G to G1A C57G, the self-cleavage falls from 0.115 to 0.

First: U47C A70G
Second: C22A U65G
The self-cleavage of the first is higher: 1.08 for the first, 0.302 for the second.

Going from A56U C64U to C33U U37A, the self-cleavage falls from 1.07 to 0.17.

First: C64G A70C
Second: C18A C44G
The self-cleavage of the first is higher: 0.536 for the first, 0.193 for the second.

Going from C18A C44A to G35U U46C, the self-cleavage falls from 0.17 to 0.0415.

Compared with C57U G81C, G28A G29C is lower in self-cleavage: 0.0604 for the first, 0.0519 for the second.

First: G28A G29U
Second: C30U G52A
The self-cleavage of the first is lower: 0.111 for the first, 0.621 for the second.

Going from C4A U23A to C58G C64G, the self-cleavage rises from 0.309 to 0.853.

Compared with A71U C84A, C21G A45C is lower in self-cleavage: 0.862 for the first, 0.18 for the second.

First: G52A A77G
Second: C32G G50A
The self-cleavage of the first is higher: 0.89 for the first, 0.157 for the second.

First: C41A A70U
Second: C30U U47G
The self-cleavage of the first is higher: 0.817 for the first, 0.571 for the second.

Compared with G52C A87C, A8G C58U is higher in self-cleavage: 0.85 for the first, 0.962 for the second.

First: G2C G38A
Second: C14A G81A
The self-cleavage of the first is lower: 0.0747 for the first, 0.911 for the second.

Compared with C14A G81U, G5U U37G is lower in self-cleavage: 1.15 for the first, 0.0755 for the second.

Going from G39A A43G to U12A C24G, the self-cleavage falls from 0.0707 to 0.0437.

First: U20C G40A
Second: G11A C24U
The self-cleavage of the first is lower: 0.0941 for the first, 0.194 for the second.

First: C3A C61U
Second: C18U C48A
The self-cleavage of the first is lower: 0.554 for the first, 0.644 for the second.

Compared with C15A C66A, C30A C61A is lower in self-cleavage: 0.684 for the first, 0.428 for the second.

Compared with C24G C26G, G1A U60A is lower in self-cleavage: 0.277 for the first, 0.185 for the second.

Going from U27C G67C to U27C G67U, the self-cleavage falls from 0.997 to 0.798.

First: C22G U60A
Second: C19A G80A
The self-cleavage of the first is higher: 0.141 for the first, 0.0329 for the second.

First: G35A G76C
Second: A56U C84U
The self-cleavage of the first is lower: 0.708 for the first, 0.808 for the second.

First: U20C G73C
Second: G1U C26A
The self-cleavage of the first is lower: 0.135 for the first, 0.288 for the second.

First: U37G G55C
Second: G53A C58A
The self-cleavage of the first is lower: 0.141 for the first, 0.962 for the second.

First: A43U C57A
Second: U46A U72C
The self-cleavage of the first is higher: 0.69 for the first, 0.655 for the second.

Going from C32U A45U to G29C A87C, the self-cleavage falls from 0.631 to 0.0932.

Compared with U46G C84U, C26A C63U is higher in self-cleavage: 0.287 for the first, 0.869 for the second.

For G39C G50C, the self-cleavage was 0.104.
